Measurements as given in patent US20080112926A1 (PROTAFFIN BIOTECHNOLOGIE, published 2008).
Substitutions are numbered along the chain they refer to.

Target: the molecule itself
Assay: fluorescence anisotropy with bis-ANS in PBS, self-association (dimerisation), no GAG
Experimental: By recording the concentration dependent fluorescence anisotropy of the chemokine resulting from the extrinsic chromophore bisANS it was aimed to find out the dimerisation constant of the mutants. Measurements were performed in PBS starting with high concentrations (up to 4 μM protein) followed by stepwise dilution. For each data point, the anisotropy signal (r) recorded at 507 nm was averaged over 60 sec.
IL-8 oligomerisation has been reported to relevantly influence the proteins GAG binding properties. Set at monomeric concentration, IL-8 bound size defined oligosaccharides 1000-fold tighter than at dimeric concentration. Therefore, the oligomerisation properties of IL-8 mutants were investigated by fluorescence anisotropy. Since the IL-8 intrinsic fluorophore (Trp57) was not sensitive enough for all of the mutants, the extrinsic fluorophore bis-ANS was used for these measurements. […] The mutant with the highest koligo(koligo=460 nM), which therefore dimerised worst, was Δ6 F17RF21R E70RN71K. […] Also the impact of heparan sulphate addition was observed.

B1: IL-8 mutant Δ6 F17RF21R E70RN71K (ligand)
chain: CQCIKTYSKPRHPKRIKELRVIESGPHCANTEIIVKLSDGRELCLDPKENWVQRVVEKFLKRARKS
notes: Δ6 means the first 6 N-terminal amino acids are deleted
koligo (oligomerisation constant): 460 nM

B2: IL-8 mutant Δ6 F17RF21R E70K (ligand)
chain: B1 chain with R64K, K65N
notes: as for B1
koligo (oligomerisation constant): 147 nM
